Assay results as given in US20230212319A1, “NOVEL ANTIGEN BINDING DOMAINS AND SYNTHETIC ANTIGEN RECEPTORS INCORPORATING THE SAME” (University of Southern California, priority 2020, published 2023).

B1: 22020 (protein)
chain: MALPVTALLLPLALLLHAARPQLQLQESGPGLVKPSETLSLTCTVSGDSISSGDYYWGWIRQPPGKGLEWIGHIYYSGVTYYNPSLKSRVTISVDTSRNQFSLKLSSVTAADTAVYYCTREDSSNWRSRGQGTLVTVSSLDSGGGGSFEQLQLQESGPGLVKPSETLSLTCTVSGGSISSGDYYWGWIRQPPGKGLEWIGHIYYSGATYYNPSLKSRVTISVDTSRNQFSLKLSSVTAADTAVYYCTRDDSSNWRSRGQGTLVTVSSTRIQNPDPAVYQLRDSKSSDKSVCLFTDFDSQTNVSQSKDSDVYITDKCVLDMRSMDFKSNSAVAWSNKSDFACANAFNNSIIPEDTFFPSPESSCDVKLVEKSFETDTNLNFQNLSVIGFRILLLKVAGFNLLMTLRLWSSRAKRSGSGVKQTLNFDLLKLAGDVESNPGPSRGHMTEYKPTVRLATRDDVPRAVRTLAAAFADYPATRHTVDPDRHIERVTELQELFLTRVGLDIGKVWVADDGAAVAVWTTPESVEAGAVFAEIGPRMAELSGSRLAAQQQMEGLLAPHRPKEPAWFLATVGVSPDHQGKGLGSAVVLPGVEAAERAGVPAFLETSAPRNLPFYERLGFTVTADVEVPEGPRTWCMTRKPGA
B2: 21985 (protein)
chain: MALPVTALLLPLALLLHAARPQLQLQESGPGLVKPSETLSLTCTVSGDSISSGDYYWGWIRQPPGKGLEWIGHIYYSGVTYYNPSLKSRVTISVDTSRNQFSLKLSSVTAADTAVYYCTREDSSNWRSRGQGTLVTVSSLEDLKNVFPPEVAVFEPSEAEISHTQKATLVCLATGFYPDHVELSWWVNGKEVHSGVCTDPQPLKEQPALNDSRYCLSSRLRVSATFWQNPRNHFRCQVQFYGLSENDEWTQDRAKPVTQIVSAEAWGRADCGFTSESYQQGVLSATILYEILLGKATLYAVLVSALVLMAMVKRKDSRGRAKRSGSGATNFSLLKQAGDVEENPGPTSMDWIWRILFLVGAATGAHSFEVQLLESGGGLIQPGGSLRLSCAASGFTFSSHAMTWVRQAPGKGLEWVSAISGSGDYTHYADSVKGRFTISRDNSKNTVYLQMNSLRAEDSAVYYCAKDEDGGSLLGHRGQGTLVTVSSTRIQNPDPAVYQLRDSKSSDKSVCLFTDFDSQTNVSQSKDSDVYITDKCVLDMRSMDFKSNSAVAWSNKSDFACANAFNNSIIPEDTFFPSPESSCDVKLVEKSFETDTNLNFQNLSVIGFRILLLKVAGFNLLMTLRLWSSRAKRSGSGVKQTLNFDLLKLAGDVESNPGPSRGHMTEYKPTVRLATRDDVPRAVRTLAAAFADYPATRHTVDPDRHIERVTELQELFLTRVGLDIGKVWVADDGAAVAVWTTPESVEAGAVFAEIGPRMAELSGSRLAAQQQMEGLLAPHRPKEPAWFLATVGVSPDHQGKGLGSAVVLPGVEAAERAGVPAFLETSAPRNLPFYERLGFTVTADVEVPEGPRTWCMTRKPGA
B3: 22162 (protein)
chain: MALPVTALLLPLALLLHAARPDIQMTQSPSSLSASVGDRVTITCKASDHINNWLAWYQQKPGQAPKLLIYGATTLETGVPSRFSGSGSGTDYTLTISSLQPEDFATYYCQQSWNTPWTFGQGTKLEIKRLEDLKNVFPPEVAVFEPSEAEISHTQKATLVCLATGFYPDHVELSWWVNGKEVHSGVCTDPQPLKEQPALNDSRYCLSSRLRVSATFWQNPRNHFRCQVQFYGLSENDEWTQDRAKPVTQIVSAEAWGRADCGFTSESYQQGVLSATILYEILLGKATLYAVLVSALVLMAMVKRKDSRGRAKRSGSGATNFSLLKQAGDVEENPGPTSATMDWIWRILFLVGAATGAHSGPEVQLLESGGGLVQPGGSLRLSCAASGSIASIHAMGWFRQAPGKEREFVAVITWSGGITYYADSVKGRFTISRDNSKNTVYLQMNSLRPEDTALYYCAGDKHQSSWYDYWGQGTLVTVSSGSGGGGSGGGGSGGGGSFEQVQLQQPGAELVKPGASVKMSCKASGYAFSSYWINWMKQKPGQGLEWIGQIYPGDGDTNYNGKFKGRATLTADTSSSTAYMQLSSLTSEDSAVYFCARSITTVVGCAMDYWGQGTSVTVSSTRIQNPDPAVYQLRDSKSSDKSVCLFTDFDSQTNVSQSKDSDVYITDKCVLDMRSMDFKSNSAVAWSNKSDFACANAFNNSIIPEDTFFPSPESSCDVKLVEKSFETDTNLNFQNLSVIGFRILLLKVAGFNLLMTLRLWSSRAKRSGSGVKQTLNFDLLKLAGDVESNPGPSRGHMTEYKPTVRLATRDDVPRAVRTLAAAFADYPATRHTVDPDRHIERVTELQELFLTRVGLDIGKVWVADDGAAVAVWTTPESVEAGAVFAEIGPRMAELSGSRLAAQQQMEGLLAPHRPKEPAWFLATVGVSPDHQGKGLGSAVVLPGVEAAERAGVPAFLETSAPRNLPFYERLGFTVTADVEVPEGPRTWCMTRKPGA
B4: 22096 (protein)
chain: MALPVTALLLPLALLLHAARPQLQLQESGPGLVKPSETLSLTCTVSGDSISSGDYYWGWIRQPPGKGLEWIGHIYYSGVTYYNPSLKSRVTISVDTSRNQFSLKLSSVTAADTAVYYCTREDSSNWRSRGQGTLVTVSSLEGQPKANPTVTLFPPSSEELQANKATLVCLISDFYPGAVTVAWKADGSPVKAGVETTKPSKQSNNKYAASSYLSLTPEQWKSHRSYSCQVTHEGSTVEKTVAPTECSPIKTDVITMDPKDNCSKDANDTLLLQLTNTSAYYMYLLLLLKSVVYFAIITCCLLRRTAFCCNGEKSRAKRSGSGATNFSLLKQAGDVEENPGPTSMDWIWRILFLVGAATGAHSFEVQLLESGGGLIQPGGSLRLSCAASGFTFSSHAMTWVRQAPGKGLEWVSAISGSGDYTHYADSVKGRFTISRDNSKNTVYLQMNSLRAEDSAVYYCAKDEDGGSLLGHRGQGTLVTVSSTRASTKGPSVFPLAPSSKSTSGGTAALGCLVKDYFPEPVTVSWNSGALTSGVHTFPAVLQSSGLYSLSSVVTVPSSSLGTQTYICNVNHKPSNTKVDKRVEPKSCEVKTDSTDHVKPKETENTKQPSKSCHKPKAIVHTEKVNMMSLTVLGLRMLFAKTVAVNFLLTAKLFFLRAKRSGSGVKQTLNFDLLKLAGDVESNPGPSRGHMTEYKPTVRLATRDDVPRAVRTLAAAFADYPATRHTVDPDRHIERVTELQELFLTRVGLDIGKVWVADDGAAVAVWTTPESVEAGAVFAEIGPRMAELSGSRLAAQQQMEGLLAPHRPKEPAWFLATVGVSPDHQGKGLGSAVVLPGVEAAERAGVPAFLETSAPRNLPFYERLGFTVTADVEVPEGPRTWCMTRKPGA

Experiments:
RAJI cells = assay: JNG assay, co-culture with RAJI cells; assay type: cell-based; settings: JNG cells expressing construct, co-culture with Raji
Summary of the method: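 Read-out is NFAT-driven GFP measured by flow cytometry after ~4–18 h co-culture of SAR-expressing JNG cells with target cells (E:T about 1:2). SARs were introduced by lentiviral spinfection and selected with puromycin or blasticidin when possible; scores (+/- to 5+ ≈ 5–50% GFP+) are relative to parental JNG cells.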

Nalm6 cells = assay: JNG assay, co-culture with Nalm6 cells; assay type: cell-based; settings: co-culture with Nalm6
Method: Cellular supernatant is collected and assayed for the induction of cytokines (e.g., IL2).
JNG (Jurkat cells expressing EGFP under an NFAT promoter) were infected with lentiviral vectors encoding different single chain and multi-chain SARs by spinfection in the presence of 8 µg/ml of Polybrene® (Sigma, Catalog no. H9268). The Jurkat-NFAT-GFP cells are engineered in such a way that the IL-2 promoter, which carries NFAT binding sites, is cloned upstream of the GFP gene. These cells have been used to study signaling via TCR and CAR. The different SARs were stably expressed in Jurkat NFAT-GFP cells by lentiviral mediated gene transfer, followed by selection with puromycin or blasticidin. No drug selection was used in case the construct lacked an antibiotic resistance gene. The SAR-expressing Jurkat-NFAT-GFP cells were cocultured with the target cells at E:T ratio of approximately 1:2 for approximately 4 hours to 18 hours. When the interaction between SIRs and their target antigen results in activation of the NFAT pathway, GFP expression is induced. […] GFP expression was monitored by FACS analysis. The Jurkat-NFAT-GFP (parental) cells were used as control. The structure of different constructs can be determined based on their names. For example, the construct CD8SP-CD19-hu-mROO5-1-vL-[hTCRa-C SDVP]-F-F2A-Spe-IgHSP-Apa-CD20-vHH-2HCD25-G4S-CDl9-hu-mROO5-1-vH-Mlu-[hTCRb-KACIAH]-F-P2A-PAC has the following modules from 5′ to 3′ direction: a CD8 signal peptide (CD8SP), the CD19 targeting hu-mROO5-1 vL fragment (CD19-hu-mROO5-1), Xho1 cloning site, human TCRa constant chain containing CSDVP mutations (hTCRa-CSDVP), Furine cleavage site (F), F2A ribosomal skip sequence (F2A), SpeI site, human IgH signal peptide (IgHSP), Apa I restriction enzyme site, camelid CD20-2HCD25-VHH module targeting CD20, BamHI restriction enzyme site, Glycinex4-serine linker (G4S), BstI restriction enzyme site, CD19-hu-mROO5-1-vH fragment targeting CD19, Mlu I restriction enzyme site, human TCRb constant chain containing KACIAH mutations ([hTCRb-KACIAH]), Furine cleavage site (F), P2A ribosomal skip sequence and Puromycin resistance gene (PAC). The sequence of the other constructs in the table can be similarly determined from their names and by referring to the different Tables of this disclosure that provide the names and SEQ ID NO of the different modules. Alternatively, the composition and modular architecture of the different SAR constructs can be determined from their sequences by bioinformatics tools, including using nucleic acid and amino acids homology searches. A SAR is considered positive in the assay in case the SAR expressing Jurkat-NFAT-GFP cells show greater % GFP positive cells when cultured with the target cell line as compared to parental Jurkat-NFAT-GFP cells. The signs +/-, +, 2+ etc. after the name of the cell lines indicate the relative degree of positivity on the Jurkat-NFAT-GFP assay as measured by the % GFP positive cells after culture of the SAR expressing Jurkat-NFAT-GFP cells with that cell line above the % GFP cells observed in parental Jurkat NFAT-GFP cells serving as controls. In general, the number +/-, +, 2+, 3+, 4+, 5+ refer to approximately 5%, 10%, 20%, 30%, 40% and 50% GFP positive cells. The % of GFP induction in the above assay is dependent not only the relative strength of the SAR but also, among other factors, on the relative level of expression of the SAR in the JNG cells and the relative level of expression of the target antigen in the target cell line. To control for the difference in gene transduction efficiency of the different SAR constructs, the experiment was conducted with JNG cells transduced with SAR constructs co-expressing a drug resistance gene (e.g., puromycin or PAC) followed by drug selection to generate a stable population of SAR-expressing cells. […]

Molecule | NFAT-GFP ASSAY: Raji (RAJI cells) | NFAT-GFP ASSAY: Nalm6 (Nalm6 cells)
B1 | +/- (refer to approximately 5%, 10%, 20%, 30%, 40% and 50% GFP positive cells) | +/- (refer to approximately 5%, 10%, 20%, 30%, 40% and 50% GFP positive cells)
B2 | – | +/- (refer to approximately 5%, 10%, 20%, 30%, 40% and 50% GFP positive cells)
B3 | – | 5+ (refer to approximately 5%, 10%, 20%, 30%, 40% and 50% GFP positive cells)
B4 | 2+ (refer to approximately 5%, 10%, 20%, 30%, 40% and 50% GFP positive cells) | + (refer to approximately 5%, 10%, 20%, 30%, 40% and 50% GFP positive cells)
